Test results: article PMC9482650, “Quantitative fragmentomics allow affinity mapping of interactomes” (Nature Communications, 2022)
Positions count from the first letter of the chain named.

T1: ARHGEF11, O15085
T1 sequence (O15085 42-136, limits assumed, looked up): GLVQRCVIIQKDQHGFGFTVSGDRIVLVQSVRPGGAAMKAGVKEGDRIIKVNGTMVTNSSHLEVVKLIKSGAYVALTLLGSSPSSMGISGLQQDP

T2: CARD11, Q9BXL7
T2 sequence (Q9BXL7 662-765, limits assumed, looked up): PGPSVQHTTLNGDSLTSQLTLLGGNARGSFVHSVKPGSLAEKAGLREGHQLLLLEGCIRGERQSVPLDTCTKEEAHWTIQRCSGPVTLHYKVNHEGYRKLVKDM

T3: DLG3_2, Q92796
T3 sequence (Q92796 221-321, limits assumed, looked up): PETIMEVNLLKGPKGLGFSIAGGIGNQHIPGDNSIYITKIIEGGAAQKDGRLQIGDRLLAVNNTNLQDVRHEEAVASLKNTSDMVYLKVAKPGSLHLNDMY

T4: GRIP1_5, Q9Y3R0
T4 sequence (Q9Y3R0 568-668, limits assumed, looked up): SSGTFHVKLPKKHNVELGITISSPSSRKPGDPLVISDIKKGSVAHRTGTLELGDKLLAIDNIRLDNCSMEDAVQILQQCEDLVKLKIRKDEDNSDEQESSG

T5: LIN7A, O14910
T5 sequence (O14910 103-200, limits assumed, looked up): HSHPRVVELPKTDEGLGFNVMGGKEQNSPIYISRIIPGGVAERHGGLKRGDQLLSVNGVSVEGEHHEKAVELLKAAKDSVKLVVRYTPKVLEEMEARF

T6: LIN7B, Q9HAP6
T6 sequence (Q9HAP6 88-185, limits assumed, looked up): T5 sequence (O14910 103-200, limits assumed, looked up) with S2A, V20I, I35V, E42D, H65Q, K77Q, D78G, K89R

T7: LIN7C, Q9NUP9
T7 sequence (Q9NUP9 88-185, limits assumed, looked up): T5 sequence (O14910 103-200, limits assumed, looked up) with D13E, V20I, V40I, E42D, K77Q, D78G, S79K, A96S

T8: NHERF3_4, Q5T2W1
T8 sequence (Q5T2W1 373-468, limits assumed, looked up): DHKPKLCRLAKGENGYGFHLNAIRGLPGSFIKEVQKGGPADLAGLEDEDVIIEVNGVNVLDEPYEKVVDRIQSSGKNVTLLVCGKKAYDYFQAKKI

T9: PARD3B_1, Q8TEW8
T9 sequence (Q8TEW8 196-299, limits assumed, looked up): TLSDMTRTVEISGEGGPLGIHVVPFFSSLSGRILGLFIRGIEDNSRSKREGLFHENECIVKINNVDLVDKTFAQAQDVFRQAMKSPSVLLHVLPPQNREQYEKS

T10: PTPN13_1, Q12923
T10 sequence (Q12923 1088-1188, limits assumed, looked up): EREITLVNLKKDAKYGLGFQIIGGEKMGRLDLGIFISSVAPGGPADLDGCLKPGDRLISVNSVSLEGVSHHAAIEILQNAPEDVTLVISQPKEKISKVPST

T11: RHPN1, Q8TCX5
T11 sequence (Q8TCX5 508-602, limits assumed, looked up): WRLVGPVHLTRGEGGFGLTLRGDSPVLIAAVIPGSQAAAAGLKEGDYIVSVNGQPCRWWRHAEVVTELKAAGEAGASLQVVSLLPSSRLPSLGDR

T12: SNTG2, Q9NY99
T12 sequence (Q9NY99 68-166, limits assumed, looked up): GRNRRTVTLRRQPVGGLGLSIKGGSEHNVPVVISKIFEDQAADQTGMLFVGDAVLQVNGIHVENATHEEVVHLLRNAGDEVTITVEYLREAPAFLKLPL

T13: TIAM2, Q8IVF5
T13 sequence (Q8IVF5 885-986, limits assumed, looked up): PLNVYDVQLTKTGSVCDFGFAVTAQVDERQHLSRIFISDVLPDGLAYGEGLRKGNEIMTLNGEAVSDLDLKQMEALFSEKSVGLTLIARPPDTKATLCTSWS

B1: SLC1A5, Q15758 (peptide)
chain: TVASEKESVM
B2: VANGL1, Q8TAA9 (peptide)
chain: VLRLQSETSV

Biological target: T1, ARHGEF11, O15085
Test: holdup assay
Set-up: key: below the threshold = too weak to quantify, mostly under pKd 3.1 to 4
Details: plain residues with an end cap or a label only (N-terminal biotin on a linker: ttds)

Binder	pKd
B1	3.56
B2	below the threshold

Biological target: T2, CARD11, Q9BXL7
Test: holdup assay
Set-up: key: below the threshold = too weak to quantify, mostly under pKd 3.1 to 4
Details: plain residues with an end cap or a label only (N-terminal biotin on a linker: ttds)

Binder	pKd
B1	below the threshold
B2	below the threshold

Biological target: T3, DLG3_2, Q92796
Test: holdup assay
Set-up: key: below the threshold = too weak to quantify, mostly under pKd 3.1 to 4
Details: plain residues with an end cap or a label only (N-terminal biotin on a linker: ttds)

Binder	pKd
B1	3.55
B2	4.64

Biological target: GOPC, Q9HD26
Test: holdup assay
Set-up: key: below the threshold = too weak to quantify, mostly under pKd 3.1 to 4
Details: plain residues with an end cap or a label only (N-terminal biotin on a linker: ttds)

Binder	pKd
B1	3.76
B2	below the threshold

Biological target: GRID2IP_2, A4D2P6
Sequence (A4D2P6 272-370): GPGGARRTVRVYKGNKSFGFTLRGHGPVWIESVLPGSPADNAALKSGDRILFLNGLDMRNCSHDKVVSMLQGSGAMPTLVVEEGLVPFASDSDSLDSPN
Test: holdup assay
Set-up: key: below the threshold = too weak to quantify, mostly under pKd 3.1 to 4
Details: plain residues with an end cap or a label only (N-terminal biotin on a linker: ttds)

Binder	pKd
B1	3.7
B2	below the threshold

Biological target: T4, GRIP1_5, Q9Y3R0
Test: holdup assay
Set-up: key: below the threshold = too weak to quantify, mostly under pKd 3.1 to 4
Details: plain residues with an end cap or a label only (N-terminal biotin on a linker: ttds)

Binder	pKd
B1	3.55
B2	below the threshold

Biological target: HTRA1, Q92743
Sequence (Q92743 360-477): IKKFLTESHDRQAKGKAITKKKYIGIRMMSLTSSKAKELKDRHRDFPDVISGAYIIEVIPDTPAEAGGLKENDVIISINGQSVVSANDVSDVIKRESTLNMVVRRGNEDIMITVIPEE
Test: holdup assay
Set-up: key: below the threshold = too weak to quantify, mostly under pKd 3.1 to 4
Details: plain residues with an end cap or a label only (N-terminal biotin on a linker: ttds)

Binder	pKd
B1	3.86
B2	below the threshold

Biological target: IL16_4, Q14005
Sequence (Q14005 1229-1329): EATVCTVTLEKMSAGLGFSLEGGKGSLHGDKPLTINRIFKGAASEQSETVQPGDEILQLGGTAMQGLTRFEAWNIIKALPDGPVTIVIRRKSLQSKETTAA
Test: holdup assay
Set-up: key: below the threshold = too weak to quantify, mostly under pKd 3.1 to 4
Details: plain residues with an end cap or a label only (N-terminal biotin on a linker: ttds)

Binder	pKd
B1	below the threshold
B2	below the threshold

Biological target: Inadl_6, Q8NI35
Sequence (Q8NI35 1058-1167): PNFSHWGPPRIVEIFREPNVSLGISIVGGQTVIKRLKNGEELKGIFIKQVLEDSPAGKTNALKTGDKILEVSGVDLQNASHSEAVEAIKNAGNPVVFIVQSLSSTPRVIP
Test: holdup assay
Set-up: key: below the threshold = too weak to quantify, mostly under pKd 3.1 to 4
Details: plain residues with an end cap or a label only (N-terminal biotin on a linker: ttds)

Binder	pKd
B1	below the threshold
B2	below the threshold

Biological target: T5, LIN7A, O14910
Test: holdup assay
Set-up: key: below the threshold = too weak to quantify, mostly under pKd 3.1 to 4
Details: plain residues with an end cap or a label only (N-terminal biotin on a linker: ttds)

Binder	pKd
B1	below the threshold
B2	below the threshold

Biological target: T6, LIN7B, Q9HAP6
Test: holdup assay
Set-up: key: below the threshold = too weak to quantify, mostly under pKd 3.1 to 4
Details: plain residues with an end cap or a label only (N-terminal biotin on a linker: ttds)

Binder	pKd
B1	below the threshold
B2	3.67

Biological target: T7, LIN7C, Q9NUP9
Test: holdup assay
Set-up: key: below the threshold = too weak to quantify, mostly under pKd 3.1 to 4
Details: plain residues with an end cap or a label only (N-terminal biotin on a linker: ttds)

Binder	pKd
B1	3.62
B2	3.94

Biological target: MAGI2_2, Q86UL8
Sequence (Q86UL8 410-522): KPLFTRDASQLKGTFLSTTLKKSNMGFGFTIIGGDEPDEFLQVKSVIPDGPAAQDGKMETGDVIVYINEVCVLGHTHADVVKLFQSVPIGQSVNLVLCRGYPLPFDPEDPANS
Test: holdup assay
Set-up: key: below the threshold = too weak to quantify, mostly under pKd 3.1 to 4
Details: plain residues with an end cap or a label only (N-terminal biotin on a linker: ttds)

Binder	pKd
B1	below the threshold
B2	4.47

Biological target: MAGI2_4, Q86UL8
Sequence (Q86UL8 772-865): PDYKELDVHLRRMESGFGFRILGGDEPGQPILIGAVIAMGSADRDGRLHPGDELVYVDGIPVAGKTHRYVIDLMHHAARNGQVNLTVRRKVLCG
Test: holdup assay
Set-up: key: below the threshold = too weak to quantify, mostly under pKd 3.1 to 4
Details: plain residues with an end cap or a label only (N-terminal biotin on a linker: ttds)

Binder	pKd
B1	below the threshold
B2	4.42

Biological target: MAGI2_6, Q86UL8
Sequence (Q86UL8 1141-1229): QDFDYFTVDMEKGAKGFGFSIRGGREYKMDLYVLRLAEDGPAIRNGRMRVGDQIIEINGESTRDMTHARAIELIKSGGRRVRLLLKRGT
Test: holdup assay
Set-up: key: below the threshold = too weak to quantify, mostly under pKd 3.1 to 4
Details: plain residues with an end cap or a label only (N-terminal biotin on a linker: ttds)

Binder	pKd
B1	below the threshold
B2	4.05

Biological target: MAGI3_2, Q5TCQ9
Sequence (Q5TCQ9 398-503): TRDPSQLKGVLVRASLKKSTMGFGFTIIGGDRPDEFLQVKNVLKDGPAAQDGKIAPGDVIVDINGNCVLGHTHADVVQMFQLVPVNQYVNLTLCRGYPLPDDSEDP
Test: holdup assay
Set-up: key: below the threshold = too weak to quantify, mostly under pKd 3.1 to 4
Details: plain residues with an end cap or a label only (N-terminal biotin on a linker: ttds)

Binder	pKd
B1	below the threshold
B2	5.14

Biological target: T8, NHERF3_4, Q5T2W1
Test: holdup assay
Set-up: key: below the threshold = too weak to quantify, mostly under pKd 3.1 to 4
Details: plain residues with an end cap or a label only (N-terminal biotin on a linker: ttds)

Binder	pKd
B1	below the threshold
B2	below the threshold

Biological target: T9, PARD3B_1, Q8TEW8
Test: holdup assay
Set-up: key: below the threshold = too weak to quantify, mostly under pKd 3.1 to 4
Details: plain residues with an end cap or a label only (N-terminal biotin on a linker: ttds)

Binder	pKd
B1	3.61
B2	below the threshold

Biological target: T10, PTPN13_1, Q12923
Test: holdup assay
Set-up: key: below the threshold = too weak to quantify, mostly under pKd 3.1 to 4
Details: plain residues with an end cap or a label only (N-terminal biotin on a linker: ttds)

Binder	pKd
B1	below the threshold
B2	below the threshold

Biological target: T11, RHPN1, Q8TCX5
Test: holdup assay
Set-up: key: below the threshold = too weak to quantify, mostly under pKd 3.1 to 4
Details: plain residues with an end cap or a label only (N-terminal biotin on a linker: ttds)

Binder	pKd
B1	3.67
B2	4.37

Biological target: SCRIB_1, Q14160
Sequence (Q14160 718-814): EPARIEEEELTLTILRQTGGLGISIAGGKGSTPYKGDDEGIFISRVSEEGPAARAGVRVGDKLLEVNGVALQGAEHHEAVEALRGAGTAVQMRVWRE
Test: holdup assay
Set-up: key: below the threshold = too weak to quantify, mostly under pKd 3.1 to 4
Details: plain residues with an end cap or a label only (N-terminal biotin on a linker: ttds)

Binder	pKd
B1	5.2
B2	5.53

Biological target: T12, SNTG2, Q9NY99
Test: holdup assay
Set-up: key: below the threshold = too weak to quantify, mostly under pKd 3.1 to 4
Details: plain residues with an end cap or a label only (N-terminal biotin on a linker: ttds)

Binder	pKd
B1	3.75
B2	4.53

Biological target: T13, TIAM2, Q8IVF5
Test: holdup assay
Set-up: key: below the threshold = too weak to quantify, mostly under pKd 3.1 to 4
Details: plain residues with an end cap or a label only (N-terminal biotin on a linker: ttds)

Binder	pKd
B1	below the threshold
B2	below the threshold

Biological target: TJP2_1, Q9UDY2
Sequence (Q9UDY2 24-128): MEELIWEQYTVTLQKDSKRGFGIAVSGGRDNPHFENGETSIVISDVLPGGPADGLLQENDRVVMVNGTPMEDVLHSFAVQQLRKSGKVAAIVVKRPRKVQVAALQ
Test: holdup assay
Set-up: key: below the threshold = too weak to quantify, mostly under pKd 3.1 to 4
Details: plain residues with an end cap or a label only (N-terminal biotin on a linker: ttds)

Binder	pKd
B1	below the threshold
B2	below the threshold
